Assay results published in the PETadex activity labels.

Legend:
[1] = substrate: PBSA; test: Proxy for plastic degradation [kcat/Km (catalytic efficiency)] (mM⁻¹s⁻¹); details: pH 8.2
[2] = substrate: PET; test: Proxy for plastic degradation [Released Products (MHET,BHET, TPA)]; details: pH 8
[3] = substrate: PET; test: Proxy for plastic degradation [Released monomer concentration (HPLC/LC-MS) (TA)]; details: pH 7
[4] = substrate: PET; test: Proxy for plastic degradation [Released monomer concentration (HPLC/LC-MS) (BA)]; details: pH 7
[5] = substrate: PET; test: Proxy for plastic degradation [Crystallinity (DSC)] (% crystallinity loss); details: pH 9.4
[6] = substrate: PET; test: Proxy for plastic degradation [Released monomer concentration (HPLC/LC-MS) (TPA+EG)]; details: pH 8, 70 °C, part of the chain shown

B1: unnamed (protein)
chain: MLAVWDDTLAHPVRGRDRELATLTGLLDNTSGRRGTGMVVVGAPGTGKTTLLNALVEHAEGFQVLWAEGSAAESDVRFAGVEQLLRPLESLVSLLPDDRGRALRPVWGLPADDEGQVGSLAVPAAVSALLGLAARRQPVLCCVDSAHLLDSASLSALAFAARRAHHAGVVFVFAVDCTADTEVDTETSVWGELPRLRLGRLDDEAAHALLRDRLGASLPHDLADSLLDVGHGAPLALVELAESLTPEHLCGRAAPPSSPPPEGRLCRTLGHRLSALSEGAREVVALAGISEGLDEQLTCRVLPHHRSTLAEAVRSGLVVLDGDTVRTAADTVPSALLAALTPQDIVQAHHRMAEAAEAVGDRDRAVWHRAAIAMAPDPALVADLDDIAERARAAAAHATAAAASERAAALTSDTKERARRLVAAATDHWASGRPQRARTALRLAAPLSDSVLGARVSRLAGEIELRRGDPSVAATKLISTARQLASTHRTLAASALMLAGEASFVAGDNARYCLTAKDAALLCGPEEWPATRVVREHFTAMSATFRGEHSAAAAPLRSLVELGETTPDPTAKTLASQAAFTLGDAERSRDLALQAVVCARARGDESGVPWALVYAALSALLSGQLSAASTTALEGLQVARSLGQSNSAVDHVTVLAMLAALQGDEETALQRLQAANTELAERGLGRPSALATWAAACVDLAHDRPAEAFDRFRRMTVGRSRHCVPLRVMAVPHFVEAAVRCGEKEVARRSLVTFEHWANTTGGTARVALAHRCHALLAEQDGEAQERFTEAVRLHREADAPYDLAVTQLLYASHLRRSRRPKQARELLREAVQLFDDLGATHWVERASQELRACGHPGRGKPHLSRGLSPQQERIAQLVADGATNKEIATQLFISHRTVDHHLRNIFAKLDVRSRVQLAALFR
[1]
  Proxy for plastic degradation: 430

B2: unnamed (protein)
chain: MLAVWDDTLAHPVRGRDRELATLTGLLDNTSGRRGTGMVVVGAPGTGKTTLLNALVEHAEGFQVLWAEGSAAESDVRFAGVEQLLRPLESLVSLLPDDRGRALRPVWGLPADDEGQVGSLAVPAAVSALLGLAARRQPVLCCVDSAHLLDSASLSALAFAARRAHHAGVVFVFAVDCTADTEVDTETSVWGELPRLRLGRLDDEAAHALLRDRLGASLPHDLADSLLDVGHGHPLALVELAESLTPEHLCGRAAPPSSPPPEGRLCRTLGHRLSALSEGAREVVALAGISEGLDEQLTCRVLPHHRSTLAEAVRSGLVVLDGDTVRTAADTVPSALLAALTPQDIVQAHHRMAEAAEAVGDRDRAVWHRAAIAMAPDPALVADLDDIAERARAAAAHATAAAASERAAALTSDTKERARRLVAAATDHWASGRPQRARTALRLAAPLSDSVLGARVSRLAGEIELRRGDPSVAATKLISTARQLASTHRTLAASALMLAGEASFVAGDNARYCLTAKDAALLCGPEEWPATRVVREHFTAMSATFRGEHSAAAAPLRSLVELGETTPDPTAKTLASQAAFTLGDAERSRDLALQAVVCARARGDESGVPWALVYAALSALLSGQLSAASTTALEGLQVARSLGQSNSAVDHVTVLAMLAALQGDEETALQRLQAANTELAERGLGRPSALATWAAACVDLAHDRPAEAFDRFRRMTVGRSRHCVPLRVMAVPHFVEAAVRCGEKEVARRSLVTFEHWANTTGGTARVALAHRCHALLAEQDGEAQERFTEAVRLHREADAPYDLAVTQLLYASHLRRSRRPKQARELLREAVQLFDDLGATHWVERASQELRACGHPGRGKPHLSRGLSPQQERIAQLVADGATNKEIATQLFISHRTVDHHLRNIFAKLDVRSRVQLAALFR
[1]
  Proxy for plastic degradation: 375

B3: unnamed (protein)
chain: MLAVWDDTLAHPVRGRDRELATLTGLLDNTSGRRGTGMVVVGAPGTGKTTLLNALVEHAEGFQVLWAEGSAAESDVRFAGVEQLLRPLESLVSLLPDDRGRALRPVWGLPADDEGQVGSLAVPAAVSALLGLAARRQPVLCCVDSAHLLDSASLSALAFAARRAHHAGVVFVFAVDCTADTEVDTETSVWGELPRLRLGRLDDEAAHALLRDRLGASLPHDLADSLLDVGHGDPLALVELAESLTPEHLCGRAAPPSSPPPEGRLCRTLGHRLSALSEGAREVVALAGISEGLDEQLTCRVLPHHRSTLAEAVRSGLVVLDGDTVRTAADTVPSALLAALTPQDIVQAHHRMAEAAEAVGDRDRAVWHRAAIAMAPDPALVADLDDIAERARAAAAHATAAAASERAAALTSDTKERARRLVAAATDHWASGRPQRARTALRLAAPLSDSVLGARVSRLAGEIELRRGDPSVAATKLISTARQLASTHRTLAASALMLAGEASFVAGDNARYCLTAKDAALLCGPEEWPATRVVREHFTAMSATFRGEHSAAAAPLRSLVELGETTPDPTAKTLASQAAFTLGDAERSRDLALQAVVCARARGDESGVPWALVYAALSALLSGQLSAASTTALEGLQVARSLGQSNSAVDHVTVLAMLAALQGDEETALQRLQAANTELAERGLGRPSALATWAAACVDLAHDRPAEAFDRFRRMTVGRSRHCVPLRVMAVPHFVEAAVRCGEKEVARRSLVTFEHWANTTGGTARVALAHRCHALLAEQDGEAQERFTEAVRLHREADAPYDLAVTQLLYASHLRRSRRPKQARELLREAVQLFDDLGATHWVERASQELRACGHPGRGKPHLSRGLSPQQERIAQLVADGATNKEIATQLFISHRTVDHHLRNIFAKLDVRSRVQLAALFR
[1]
  Proxy for plastic degradation: 330

B4: unnamed (protein)
chain: MGSSHHHHHHSSGLVPRGSHMRGPNPTAASLEASAGPFTVRSFTVSRPSGYGAGTVYYPTNAGGTVGAIAIVPGYTARQSSIKWWGPRLASHGFVVITIDTNSTLDQPSSRSSQQMAALRQVASLNGTSSSPIYGKVDTARMGVMGWSMGGGGSLISAANNPSLKAAAPQAPWDSSTNFSSVTVPTLIFACENDSIAPVNSSALPIYDSMSRNAKQFLEINGGSHSCANSGNSNQALIGKKGVAWMKRFMDNDTRYSTFACENPNSTRVSDFRTANCSLEDPAANKARKEAELAAATAEQ
[2]; 4 °C
  Proxy for plastic degradation: 100 µM
[2]; 16 °C
  Proxy for plastic degradation: 410 µM
[2]; 30 °C
  Proxy for plastic degradation: 1100 µM
[2]; 37 °C
  Proxy for plastic degradation: 300 µM
[2]; 55 °C
  Proxy for plastic degradation: 180 µM
[2]; 70 °C
  Proxy for plastic degradation: 100 µM

B5: unnamed (protein)
chain: MTHQIVTTQYGKVKGTTENGVHKWKGIPYAKPPVGQWRFKAPEPPEVWEDVLDATAYGPICPQPSDLLSLSYTELPRQSEDCLYVNVFAPDTPSQNLPVMVWIHGGAFYLGAGSEPLYDGSKLAAQGEVIVVTLNYRLGPFGFLHLSSFNEAYSDNLGLLDQAAALKWVRENISAFGGDPDNVTVFGESAGGMSIAALLAMPAAKGLFQKAIMESGASRTMTKEQAASTSAAFLQVLGINEGQLDKLHTVSAEDSLKAADQLRIAEKENIFQLFFQPALDPKTLPEEPEKAIAEGAASGIPLLIGTTRDEGYLFFTPDSDVHSQETLDAALEYLLGKPLAEKAADLYPRSLESQIHMMTDLLFWRPAVAYASAQSHYAPVWMYRFDWHPKKPPYNKAFHALELPFVFGNLDGLERMAKAEITDEVKQLSHTIQSAWITFAKTGNPSTEAVNWPAYHEETRETLILDSEITIENDPESEKRQKLFPSKGE
[3]; 1 h
  Proxy for plastic degradation: 0 µM
[3]; 2 h
  Proxy for plastic degradation: 100 µM
[4]; 1 h
  Proxy for plastic degradation: 10 mM
[4]; 2 h
  Proxy for plastic degradation: 1250 mM

B6: unnamed (protein)
chain: MNFPRASRLMQAAVLGGLMAVSAAATAQTNPYARGPNPTAASLEASAGPFTVRSFTVSRPSGYGAGTVYYPTNAGGTVGAIAIVPGYTARQSSIKWWGPRLASHGFVVITIDTNSTLDQPSSRSSQQMAALRQVASLNGTSSSPIYGKVDTARMGVMGWSMGGGGSLISAANNPSLKAAAPQAPWDSSTNFSSVTVPTLIFACENDSVAPVASSALPIYDSMSRNAKQFLEINGGSHYCANSGNSNQALIGKKGVAWMKRFMDNDTRYSTFACENPNSTRVSDFRTANCSLEHHHHHH
[5]
  Proxy for plastic degradation: 3.2

B7: unnamed (protein)
chain: MNFPRASRLMQAAVLGGLMAVSAAATAQTNPYARGPNPTAASLEASAGPFTVRSFTVSRPSGYGAGTVYYPTNAGGTVGAIAIVPGYTARQSSIKWWGPRLASHGFVVITIDTNSTLDQPSSRSSQQMAALRQVASLNGTSSSPIYGKVDTARMGVMGWSMGGGGSLISAANNPSLKAAAPQAPWDSSTNFSSVTVPTLIFACENDSIAPVNSSALPIYDSMSRNAKQFLEINGGSHSCANSGNSNQALIGKKGVAWMKRFMDNDTRYSTFACENPNSTRVSDFRTANCSLEHHHHHH
[5]
  Proxy for plastic degradation: 1.5

B8: unnamed (protein)
chain: MNFPRASRLMQAAVLGGLMAVSAAATAQTNPYARGPNPTAASLEASAGPFTVRSFTVSRPSGYGAGTVYYPTNAGGTVGAIAIVPGYTARQSSIKWWGPRLASHGFVVITIDTNSTLDQPSSRSSQQMAALRQVASLNGTSSSPIYGKVDTARMGVMGWSMGGGGSLISAANNPSLKAAAPQAPWDSSTNFSSVTVPTLIFACENDSVAPVNSSALPIYDSMSRNAKQFLEINGGSHSCANSGNSNQALIGKKGVAWMKRFMDNDTRYSTFACENPNSTRVSDFRTANCSLEHHHHHH
[5]
  Proxy for plastic degradation: 0.6

B9: unnamed (protein)
chain: MNFPRASRLMQAAVLGGLMAVSAAATAQTNPYARGPNPTAASLEASAGPFTVRSFTVSRPSGYGAGTVYYPTNAGGTVGAIAIVPGYTARQSSIKWWGPRLASHGFVVITIDTNSTLDQPSSRSSQQMAALRQVASLNGTSSSPIYGKVDTARMGVMGWSMGGGGSLISAANNPSLKAAAPQAPWDSSTNFSSVTVPTLIFACENDSVAPVASSALPIYDSMSRNAKQFLEINGGSHSCANSGNSNQALIGKKGVAWMKRFMDNDTRYSTFACENPNSTRVSDFRTANCSLEHHHHHH
[5]
  Proxy for plastic degradation: 2

B10: unnamed (protein)
chain: QLGAIENGLESGSANACPDAILIFARGSTEPGNMGITVGPALANGLESHIRNIWIQGVGGPYDAALATNFLPRGTSQANIDEGKRLFALANQKCPNTPVVAGGYSQGAALIAAAVSELSGAVKEQVKGVALFGYTQNLQNRGGIPNYPRERTKVFCNVGDAVCTGTLIITPAHLSYTIEARGEAARFLRDRIRA
[6]; 0 h
  Proxy for plastic degradation: 0%
[6]; 24 h
  Proxy for plastic degradation: 38%
[6]; 48 h
  Proxy for plastic degradation: 50%
[6]; 72 h
  Proxy for plastic degradation: 70%
[6]; 96 h
  Proxy for plastic degradation: 90%
